Numbering of substitutions follows the chain as printed.
B1: MexA (a.a. 2-360) (natural protein)
chain: GKSEAPPPAQTPEVGIVTLEAQTVTLNTELPGRTNAFRIAEVRPQVNGIILKRLFKEGSDVKAGQQLYQIDPATYEADYQSAQANLASTQEQAQRYKLLVADQAVSKQQYADANAAYLQSKAAVEQARINLRYTKVLSPISGRIGRSAVTEGALVTNGQANAMATVQQLDPIYVDVTQPSTALLRLRRELASGQLERAGDNAAKVSLKLEDGSQYPLEGRLEFSEVSVDEGTGSVTIRAVFPNPNNELLPGMFVHAQLQEGVKQKAILAPQQGVTRDLKGQATALVVNAQNKVELRVIKADRVIGDKWLVTEGLNAGDKIITEGLQFVQPGVEVKTVPAKNVASAQKADAAPAKTDSKG
notes: MexA (membrane fusion protein), Pseudomonas aeruginosa, a.a; 2-360, lacks the signal peptide and the first cysteine; numbers count on: the mature protein; Six copies (a hexamer) stand in the assembled MexAB-OprM pump; also called MFP; membrane fusion protein; source: E. coli BL21-RILP(DE3), purified (Ni-NTA, TEV cleavage, Superdex200); not shown: His6, N-terminal, cleaved
B2: MexA R96D (natural protein, Pseudomonas aeruginosa, UniProt P52477 25-383, looked up)
chain: B1 chain with R95D
notes: MexA, Pseudomonas aeruginosa, a.a; 2-360 as m1; numbers count on: the mature protein; source: E. coli, expressed and purified as the wild type; not shown: His6, N-terminal, cleaved
B3: MexA R96A (natural protein, Pseudomonas aeruginosa, UniProt P52477 25-383, looked up)
chain: B1 chain with R95A
notes: as for B2
B4: MexA L99D (natural protein, Pseudomonas aeruginosa, UniProt P52477 25-383, looked up)
chain: B1 chain with L98D
notes: as for B2
B5: OprM, full length (natural protein)
chain: CSLIPDYQRPEAPVAAAYPQGQAYGQNTGAAAVPAADIGWREFFRDPQLQQLIGVALENNRDLRVAALNVEAFRAQYRIQRADLFPRIGVDGSGTRQRLPGDLSTTGSPAISSQYGVTLGTTAWELDLFGRLRSLRDQALEQYLATEQAQRSAQTTLVASVATAYLTLKADQAQLQLTKDTLGTYQKSFDLTQRSYDVGVASALDLRQAQTAVEGARATLAQYTRLVAQDQNALVLLLGSGIPANLPQGLGLDQTLLTEVPAGLPSDLLQRRPDILEAEHQLMAANASIGAARAAFFPSISLTANAGTMSRQLSGLFDAGSGSWLFQPSINLPIFTAGSLRASLDYAKIQKDINVAQYEKAIQTAFQEVADGLAARGTFTEQLQAQRDLVKASDEYYQLADKRYRTGVDNYLTLLDAQRSLFTAQQQLITDRLNQLTSEVNLYKALGGGWNQQTVTQQQTAKKEDPQA
notes: OprM (outer membrane factor), Pseudomonas aeruginosa, gene encoding full-length OprM; The full-length gene was expressed; also called OMF; outer membrane factor; source: E. coli C43(DE3), outer membranes solubilised with OG, purified (Ni-NTA, Superdex200, CYMAL-7)
B6: MexB, full length (natural protein)
chain: MSKFFIDRPIFAWVIALVIMLAGGLSILSLPVNQYPAIAPPAIAVQVSYPGASAETVQDTVVQVIEQQMNGIDNLRYISSESNSDGSMTITVTFEQGTDPDIAQVQVQNKLQLATPLLPQEVQRQGIRVTKAVKNFLMVVGVVSTDGSMTKEDLSNYIVSNIQDPLSRTKGVGDFQVFGSQYSMRIWLDPAKLNSYQLTPGDVSSAIQAQNVQISSGQLGGLPAVKGQQLNATIIGKTRLQTAEQFENILLKVNPDGSQVRLKDVADVGLGGQDYSINAQFNGSPASGIAIKLATGANALDTAKAIRQTIANLEPFMPQGMKVVYPYDTTPVVSASIHEVVKTLGEAILLVFLVMYLFLQNFRATLIPTIAVPVVLLGTFGVLAAFGFSINTLTMFGMVLAIGLLVDDAIVVVENVERVMAEEGLSPREAARKSMGQIQGALVGIAMVLSAVFLPMAFFGGSTGVIYRQFSITIVSAMALSVIVALILTPALCATMLKPIEKGDHGEHKGGFFGWFNRMFLSTTHGYERGVASILKHRAPYLLIYVVIVAGMIWMFTRIPTAFLPDEDQGVLFAQVQTPPGSSAERTQVVVDSMREYLLEKESSSVSSVFTVTGFNFAGRGQSSGMAFIMLKPWEERPGGENSVFELAKRAQMHFFSFKDAMVFAFAPPSVLELGNATGFDLFLQDQAGVGHEVLLQARNKFLMLAAQNPALQRVRPNGMSDEPQYKLEIDDEKASALGVSLADINSTVSIAWGSSYVNDFIDRGRVKRVYLQGRPDARMNPDDLSKWYVRNDKGEMVPFNAFATGKWEYGSPKLERYNGVPAMEILGEPAPGLSSGDAMAAVEEIVKQLPKGVGYSWTGLSYEERLSGSQAPALYALSLLVVFLCLAALYESWSIPFSVMLVVPLGVIGALLATSMRGLSNDVFFQVGLLTTIGLSAKNAILIVEFAKELHEQGKGIVEAAIEACRMRLRPIVMTSLAFILGVVPLAISTGAGSGSQHAIGTGVIGGMVTATVLAIFWVPLFYVAVSTLFKDEASKQQASVEKGQ
notes: MexB (RND transporter), Pseudomonas aeruginosa, full length; also called RND transporter; source: E. coli C43(DE3), membranes solubilised with DDM, purified (Ni-chelating Sepharose, Superdex200, CYMAL-7)

Assays:
OprM, full length [1] = target: B5; experiment: cryo-EM structure; MexA, MexB and OprM reconstituted in vitro, detergent replaced with amphipol A8-35, 50 mM HEPES-K pH 7.5; single-particle analysis; 0° and 60° states; without drug and with 10 mM novobiocin; details: both partners purified
[2] = target: the molecule itself; experiment: as above
OprM, full length [3] = target: B5; experiment: SEC; complex-formation experiment: MexA, MexB and OprM (wild type, or one of them mutated) mixed at 3:1:1 in buffer C, dialysed against buffer D (20 mM Na-citrate, 300 mM KCl, 0.02% CYMAL-7) at 4 °C, Superdex200 16/60, 0.5 mL/min; the read-out is the formation of the tripartite complex; details: both partners purified
MexB, full length = target: B6; experiment: as above; details: both partners purified

Row | Binder | stoichiometry N (OprM, full length [1]) [MexA per OprM] | stoichiometry N [2] | binding result (OprM, full length [3]) | binding result (MexB, full length)
1 | B1 | 2 | 6 | – | –
2 | B2 | – | – | binds | –
3 | B3 | – | – | binds | binds
4 | B4 | – | – | binds | binds
5 | B5 | – | 3 | – | –
6 | B6 | – | 3 | – | –
